{"source": "patent US20250127783", "target": "HA-Cdh1 (UniProt Q9UM11)", "sequence (Q9UM11 whole entry)": "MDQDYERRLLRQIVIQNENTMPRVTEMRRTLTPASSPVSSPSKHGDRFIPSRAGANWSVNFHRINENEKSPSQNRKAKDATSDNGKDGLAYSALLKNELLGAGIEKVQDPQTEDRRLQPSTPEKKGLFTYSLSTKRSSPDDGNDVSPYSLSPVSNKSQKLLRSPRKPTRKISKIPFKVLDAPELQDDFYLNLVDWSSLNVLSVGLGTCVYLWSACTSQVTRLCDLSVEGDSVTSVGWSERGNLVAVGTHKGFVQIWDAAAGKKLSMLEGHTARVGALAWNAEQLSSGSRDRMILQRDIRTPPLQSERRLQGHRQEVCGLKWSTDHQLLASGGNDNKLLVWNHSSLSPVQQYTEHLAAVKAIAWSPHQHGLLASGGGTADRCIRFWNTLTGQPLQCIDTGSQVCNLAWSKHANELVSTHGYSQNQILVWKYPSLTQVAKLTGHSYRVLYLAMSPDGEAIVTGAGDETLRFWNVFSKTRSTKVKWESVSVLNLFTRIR", "data": [{"substance": "recombinant human cyclin D1+CDK4 proteins (Abcam ab55695)", "values": [{"measurement": "in vitro kinase assay (thiophosphate ester immunoblot)", "value": "CDK4 specifically phosphorylates Cdh1 at S163"}]}]}
